Data taken from patent US20140004122A1, “METHODS FOR TREATING OR PREVENTING CHOLESTEROL RELATED DISORDERS” (AMGEN INC., priority 2011, published 2014).
“Also recorded” adds a separate entry of the source.

Key:
[1] = system: human patient exhibiting a Cholesterol Related Disorder; test: Treatment of cholesterol related disorders (Example 16); type: in vivo; details: therapeutically effective amount
Description: At periodic times during the treatment, the patient is monitored to determine whether the symptoms of the disorder have subsided.

[2] = system: subjects with hyperlipidemia on stable doses of a statin; test: Phase 1b ascending multiple dose study on stable statin (Example 21); type: in vivo
Experimental: The study had seven cohorts. […] Cohort 6 was conducted in hypercholesterolemic subjects on high doses of a statin (atorvastatin 80 mg or rosuvastatin 40 mg).

[3] = system: subjects with heterozygous familial hypercholesterolemia (HeFH); test: 12 week study in heterozygous familial hypercholesterolemia (Example 22); type: in vivo, human; details: preliminary
Experimental: This study is a double-blind, randomized, stratified, placebo-controlled clinical trial evaluating the safety, tolerability, and efficacy of monocloncal antibody 21B12 in subjects having a diagnosis of HeFH. A total enrollment of 150 subjects is planned. […] Randomization will be stratified by screening LDL-C level (<130 mg/dL [3.4 mmol/L] vs≧130 mg/dL) and ezetimibe use at baseline (yes vs no). Randomization should occur within 5-10 days of the screening LDL-C evaluation used to determine eligibility. Monoclonal antibody, 21B12, and placebo will be blinded. Study visits are at weeks 2, 4, 8, and 12. […] The end-of-study (EOS) visit and the last evaluation of lipids is at week 12.
Males and females, ≧18 to ≦75 years of age, and with a diagnosis of heterozygous familial hypercholesterolemia by the diagnostic criteria of the Simon Broome Register Group (SBRG), are eligible for this study. For enrollment, subjects must be on an approved statin, with stable dose(s) for all allowed (eg, ezetimibe, bile-acid sequestering resin, stanols, or regulatory-approved and marketed niacin (eg, Niaspan or Niacor)) lipid-regulating drugs for at least 4 weeks before LDL-C screening and, in the opinion of the investigator, not requiring uptitration. Fasting LDL-C must be ≧100 mg/dL (2.6 mmol/L) and fasting triglycerides ≦400 mg/dL (4.5 mmol/L) by central laboratory at screening.

[4] = system: hypercholesterolemic subjects unable to tolerate an effective dose of an HMG-CoA reductase inhibitor; test: 12 week study vs ezetimibe in statin-intolerant patients (Example 23); type: in vivo, human; details: preliminary
Experimental: It is planned to enroll 150 subjects. […] Randomization will be stratified by screening LDL-C level (<130 mg/dL [3.4 mmol/L] vs≧130 mg/dL) and statin use at baseline (yes vs no). Randomization should occur within 5-10 days of the screening LDL-C evaluation used to determine eligibility. Monoclonal antibody, 21B12, and placebo will be blinded. Ezetimibe is not blinded. Study visits are at weeks 2, 4, 8, and 12. […] The end-of-study visit and the last evaluation of lipids is at week 12.
Males and females, ≧18 to ≦75 years of age, are eligible for this study. Subject must have tried at least 1 statin and have been unable to tolerate any dose or an increase in statin dose above the following total weekly maximum doses due to myalgia or myopathy: atorvastatin ≦70 mg, simvastatin ≦140 mg, pravastatin ≦140 mg, rosuvastatin ≦35 mg, lovastatin ≦140 mg, fluvastatin ≦280 mg. For unlisted statins, the maximal total weekly dose should not exceed 7 times the smallest available tablet size. Symptoms must have resolved when statin was discontinued or the dose reduced. If receiving statin (not exceeding the maximal dose defined above), bile-acid sequestering resin, and/or stanol therapy, the dose(s) must be stable for at least 4 weeks prior to LDL-C screening. If the subject is on ezetimibe at start of screening, ezetimibe must be discontinued for ≧4 weeks before LDL-C screening. Depending on their risk category (based on NCEP ATP III treatment goals) subjects must meet the following fasting LDL-C (by central laboratory) criteria at screening: ≧100 mg/dL (2.6 mmol/L) for subjects with diagnosed coronary heart disease (CHD) or CHD risk equivalent; ≧130 mg/dL (3.4 mmol/L) for subjects without diagnosed CHD or risk equivalent and 2 or more risk factors; ≧160 mg/dL (4.1 mmol/L) for subjects without diagnosed CHD or risk equivalent and with 1 or no risk factors. Fasting triglycerides must be ≦400 mg/dL (4.5 mmol/L) as determined by the central laboratory analysis at screening.

[5] = cohort 6, high-dose statins, 140 mg SC Q2W 3 times
[6] = 350 mg Q4W SC, end of the dosing interval
[7] = 280 mg Q4W SC, end of the dosing interval

B1: 21B12: human anti-PCSK9 monoclonal antibody; light/heavy variable region SEQ ID NO 23/49 (antibody, listed as Homo sapiens, V domains shown)
VH: QVQLVQSGAEVKKPGASVKVSCKASGYTLTSYGISWVRQAPGQGLEWMGWVSFYNGNTNYAQKLQGRGTMTTDPSTSTAYMELRSLRSDDTAVYYCARGYGMDVWGQGTTVTVSS
VL: QSALTQPASVSGSPGQSITISCTGTSSDVGGYNSVSWYQQHPGKAPKLMIYEVSNRPSGVSNRFSGSKSGNTASLTISGLQAEDEADYYCNSYTSTSMVFGGGTKLTVL
B1 was tested, and the “serum cholesterol levels vs patients that are not treated” value [1] was “reduced serum cholesterol levels”, the “maximum ApoB reduction during the study” value ([2]; 35 mg QW) was 48% and the “maximum ApoB reduction during the study” value ([2]; 140 mg and 280 mg Q2W and 420 mg Q4W) was 59%. The “plasma PCSK9” value ([2]; at higher doses) was “undetectable”, the “suppression of PCSK9” value ([2]; cohort 3, 140 mg Q2W SC 3 times, preliminary) was “Near-complete suppression of PCSK9” and the “maximum reduction in LDL-C versus placebo” value [2, 5] was 73%. For the same molecule, the “mean reduction in LDL-C vs placebo at the end of the dosing interval” value [2, 5] was 63%, the “maximum LDL-C reduction versus placebo” value ([2]; cohort 7 heFH) was 70% and the “maximum reduction of ApoB versus placebo” value ([2]; cohort 7 heFH) was 57%. For the same molecule, the “maximum reduction of non-HDL cholesterol versus placebo” value ([2]; cohort 7 heFH) was 67%, the “maximum total cholesterol reduction versus placebo” value ([2]; cohort 7 heFH) was 47% and the “serious AEs” value ([2]; cohort 7 heFH) was “No serious AEs were reported”. The “mean reduction in LDL-C vs placebo at the end of the dosing interval” value ([2]; cohort 7 heFH, 140 mg SC Q2W 3 times, week 6) was 65%, the “mean reduction in ApoB levels vs placebo” value ([2]; cohort 7 heFH, week 6) was “up to 47%” and the “mean reduction in lipoprotein a (Lp(a)) vs placebo” value ([2]; cohort 7 heFH, week 6) was 50%. The “mean reduction in non-HDL cholesterol vs placebo” value ([2]; cohort 7 heFH, week 6) was 61%, the “mean reduction in serum PCSK9 values vs placebo” value ([2]; cohort 7 heFH, week 6) was 78% and the “mean reduction in total cholesterol vs placebo” value ([2]; cohort 7 heFH, week 6) was “up to 42%”. The “mean ApoB reduction vs placebo at the end of the dosing interval” value ([2]; cohorts 1-5) was “up to 54%”, the “mean reduction of PCSK9 levels vs placebo at the end of the dosing interval” value ([2]; cohorts 1-5) was “up to 94%” and the “mean LDL-C reduction vs placebo at maximal reduction” value ([2]; cohorts 1-5, low to moderate doses of statins, 3 biweekly SC doses) was “up to 81%”. The “mean LDL-C reduction vs placebo at the end of the dosing interval” value ([2]; cohorts 1-5, week 6 after 3 biweekly SC doses) was no more than 75%, the “mean LDL-C reduction at the end of the dosing interval” value ([2]; cohorts 1-5, week 8 after 2 every 4 week SC doses) was no more than 66% and the “mean Lp(a) reduction vs placebo at the end of the dosing interval” value ([2]; cohorts 1-6) was “up to 43%”. For the same molecule, the “deaths or serious adverse events” value ([2]; cohorts 1-6, final results) was “No deaths or serious adverse events (AEs) were reported; also recorded: no serious AEs”, the “neutralizing antibodies to 21B12” value ([2]; cohorts 1-6, final results) was “No neutralizing antibodies to 21B12 were detected” and the “circulating PCSK9” value ([2]; heFH subjects after treatment) was “undetectable”. For the same molecule, the “LDL-C nadir observed within (after initial dosing)” value ([2]; preliminary, cohorts 1-3, stable moderate doses of statins) was no more than 2 weeks, the “decrease of circulating LDL-C vs placebo” value ([2]; repeated SC doses over 6 weeks, low-to-moderate or high-dose statins) was “up to 81%” and the “LS mean percent increase from baseline in HDL-C” value (“LS mean percent increase” for short) [3, 6] was 15.39%. For the same molecule, the “LS mean percent reduction from baseline in LDL-C” value [3, 6] was 38.46%, the “LS mean percent reduction from baseline in Lp(a)” value [3, 6] was 21.69% and the “LS mean percent reduction from baseline in VLDL-C” value [3, 6] was 17.16%. The “LS mean percent reduction from baseline in non-HDL cholesterol” value [3, 6] was 36.16%, the “LS mean percent reduction from baseline in total cholesterol” value [3, 6] was 24.82% and the “LS mean percent reduction from baseline in triglycerides” value [3, 6] was 17.24%. For the same molecule, the “LS mean percent increase” value ([3]; 420 mg Q4W SC) was 6.77%, the “LS mean percent reduction from baseline in LDL-C” value ([3]; 420 mg Q4W SC) was 45.68% and the “LS mean percent reduction from baseline in Lp(a)” value ([3]; 420 mg Q4W SC) was 28.23%. For the same molecule, the “LS mean percent reduction from baseline in VLDL-C” value ([3]; 420 mg Q4W SC) was 18.49%, the “LS mean percent reduction from baseline in non-HDL cholesterol” value ([3]; 420 mg Q4W SC) was 41.81% and the “LS mean percent reduction from baseline in total cholesterol” value ([3]; 420 mg Q4W SC) was 29.45%. For the same molecule, the “LS mean percent reduction from baseline in triglycerides” value ([3]; 420 mg Q4W SC) was 4.56%, the “LS mean percent increase” value [4, 7] was 8.62% and the “LS mean percent reduction from baseline in LDL-C” value [4, 7] was 38.79%. The “LS mean percent reduction from baseline in Lp(a)” value [4, 7] was 27.38%, the “LS mean percent reduction from baseline in VLDL-C” value [4, 7] was 31.02% and the “LS mean percent reduction from baseline in non-HDL-C” value [4, 7] was 39.92%. The “LS mean percent reduction from baseline in total cholesterol” value [4, 7] was 31.03%, the “LS mean percent reduction from baseline in triglycerides” value [4, 7] was 15.35% and the “LS mean percent increase” value [4, 6] was 4.62%. For the same molecule, the “LS mean percent reduction from baseline in LDL-C” value [4, 6] was 40.01%, the “LS mean percent reduction from baseline in Lp(a)” value [4, 6] was 16.04% and the “LS mean percent reduction from baseline in VLDL-C” value [4, 6] was 38.14%. The “LS mean percent reduction from baseline in non-HDL-C” value [4, 6] was 42.86%, the “LS mean percent reduction from baseline in total cholesterol” value [4, 6] was 34.46% and the “LS mean percent reduction from baseline in triglycerides” value [4, 6] was 19.22%. The “LS mean percent increase” value ([4]; 420 mg Q4W SC) was 7.55%, the “LS mean percent reduction from baseline in LDL-C” value ([4]; 420 mg Q4W SC) was 50.63% and the “LS mean percent reduction from baseline in Lp(a)” value ([4]; 420 mg Q4W SC) was 23.84%. For the same molecule, the “LS mean percent reduction from baseline in VLDL-C” value ([4]; 420 mg Q4W SC) was 37.27%, the “LS mean percent reduction from baseline in non-HDL-C” value ([4]; 420 mg Q4W SC) was 53.49% and the “LS mean percent reduction from baseline in total cholesterol” value ([4]; 420 mg Q4W SC) was 42.23%. The “LS mean percent reduction from baseline in triglycerides” value ([4]; 420 mg Q4W SC) was 19.55%.
